The source of these data is patent publication US20200123233A1 (published 2020).

B1: PMP13B4 (VHH)
VHH: EVQLVESGGGLVQAGGSLRLSCAASGFTFDDYAIGWFRQAPGKEREAVSCISSSDGSTYYADSVKGRFTISSDNAKNMVYLQMNSLKPEDTAVYYCAADLLRTAVGCLDYRGTYYPRTTMDYRGKGTLVTVSS
B2: PMP23E5 (VHH)
VHH: EVQLMESGGGLVQAGGSLRLSCAASGGTFSSYAMGWFRQAPGEERDFVAAIGWSGNSPYYAQFVKGRFTISRDNAKNTVHLQMNSLKPEDTAVYYCAAAHNTMGSDYEGYDYWGQGTQVTVSS
B3: PMP8B10 (VHH)
VHH: EVQLVESGGGLVQAGASLRLSCAASGLAFSRYAMGWFRQAPGKERESVAAISSSGDNIYYADSVKGQFTMSRDNAKSSVYLQMINLKPEDTAVYYCAATSPLFVASDYFEASRYGYWGQGTQVTVSS
B4: PMP13C1 (VHH)
VHH: EVQLVESGGGLVQPGGSLRLSCEASGFTWDYYVIGWFRQAPGKEREGLSCISSDGSTTYADSVKGRFTISRDNAKNTVYLQMNSLEPEDTAVYYCATDPALGCYSGSYYPRYDYWGQGTQVTVSS
B5: PMP13A1 (VHH)
VHH: EVQLVESGGGLVQPGGSLRLSCAASGLTLDYYALGWFRQAPGKEREGVSCISSADHSTTYADSVKGRFTISWDNAKNTVYLQMNSLKPEDTAVYYCAADPALGCYSGNYYPRYDYWGQGTQVTVSS
B6: PMP19E2 (VHH)
VHH: B5 VHH with A54S, S57T, A61T, V79L, N108S, Y115F
B7: PMP8A1 (VHH)
VHH: EVQLVESGGGLVQPGGSLRVSCAASGFTFNDYIMGWFRQAPGKERMFIAAISGTGTIKYYGDLVRGRFTISRDNAKNTVYLRIDSLNPEDTAVYYCAARQDYGLGYRESHEYDYWGQGTQVTVSS
B8: LG192A8 (VHH)
VHH: EVQLVESGGGLVQAGGSLRLSCAASERTVIAYTMGWFRRAPGKERDFVAAMNWNGGNTIYADSAKGRFTISRDNAKNTVYLQMNSLKAEDTAVYYCAARPRFWGSYEYDYWGQGTQVTVSS
B9: LG191B9 (VHH)
VHH: EVQLVESGGGLVQAGGSLRLSCAASGRTFSSSFMAWFRQVLGSDREFVGGISPGGRFTYYADSRKGRFTISGDNANNTVYLQMHSVKPEDTATYYCAADTQFSGYVPKETNEYDYWGQGTQVTVSS
B10: LG192H1 (VHH)
VHH: EVQLVESGGGLVQAGGSLRLSCAASGIIFSTNHMGWYRRAPGKQRELVGTINRGDSPYYADSVKGRFTISRDNAKNMVYLQMNSLKPEDTAVYYCNAGYIYWGQGTQVTVSS
B11: LG191E4 (VHH)
VHH: EVQLVESGGGLVQAGGSLRLSCAASGPTFSADTMGWFRQAPGKEREFVATIPWSGGIAYYSDSVKGRFTMSRDNAKNTVDLQMNSLKPEDTALYYCAGSSRIYIYSDSLSERSYDYWGQGTQVTVSS
B12: LG192C10 (VHH)
VHH: EVQLVESGGGLVQAGGSLRLSCAASEGYFRNYMVGWFRQAPGGERMFVAAISDTAYYADSVKGRFTISRDNAKNTVYLPMNSLKPEDTAVYYCAAAPKSWGTWPLVADTRSYHFWGQGTQVTVSS
B13: LG192F2 (VHH)
VHH: EVQLVESGGGLVQAGGSLRLSCEASGRTFSPIAMGWFRQAPGKEREFVAVVTRWSGARTVYADSVKGRFTISRDNAENTVYLQMNSLKPEDTAVYTCAADSTNRNSGAIYYTWAYDYWGQGTQVTVSS
B14: LG192C6 (VHH)
VHH: B13 VHH with F29E, S30R, P31Y, I32Q, S106R
B15: LG191D3 (VHH)
VHH: EVQLVESGGGLVQAGGSLRLSCEASGRTYSRYGMGWFRQAPGKEREFVAAVSRLSGPRTVYADSVKGRFTISRDNAENTVYLQMNSLKPEDTAVYTCAAELTNRNSGAYYYAWAYDYWGQGTQVTVSS
B16: LG192H2 (VHH)
VHH: B13 VHH with P31N, I32Y, A57G, I109W, Y117H
B17: LG192C4 (VHH)
VHH: EVQLVESGGGLVQAGGSLRLSCEASGRTFSSYAMVGWFRQAPGKEREFVAAVTRWSGARTVYADSVKGRFTISRDNAENTVYLQMNSLKPEDTAVYTCAADSTNRNSGAVYYSWAYDYWGQGTQVTVSS
B18: LG192B1 (VHH)
VHH: EVQLVESGGGLVQPGGSLRLSCAASGLTFRNYAIGWFRQAPGKEREGVSCINSGGSITDYLDSVKGRFAISRDNAKSTVYLQMNSLKPEDTAVYYCATDLTSSCPIYSGTDYWGKGTLVTVSS

Changes are numbered by the printed parent chain.

The first assay addresses T1, FTM-NN protein (membrane anchorless form of the Long fusion protein of hRSV, 70 kDa) (human respiratory syncytial virus, …, UniProt P12568 26-524). The experiment in a line: competition ELISA, periplasmic extract diluted 1:100, competitor 101F Fab. A general note: An ELISA detects its analyte on a solid surface through an enzyme-linked reagent.
Turning to B1, the “% Inhibition 101F Fab (1:100 PE)” value turned out to be 82%.
Consider B2, for which the “% Inhibition 101F Fab (1:100 PE)” value stood at 37%.
Still for that read-out and setting: with B3 the figure was 56%; with B4, 57%.
B5: the “% Inhibition 101F Fab (1:100 PE)” value worked out at 74%.
The same measure, in the same setting: the same measure for B6: 74%.

The target of another assay is T1, FTM-NN protein (membrane anchorless …). Put plainly: ELISA, periplasmic extract on immobilised F protein; signal as fold over blank.
Consider B1, for which the “Binding RSV-A, Fold blanc” value stood at 2.7 fold over blank.
As to B2, the “Binding RSV-A, Fold blanc” value is 3.4 fold over blank.
Turning to B3, the “Binding RSV-A, Fold blanc” value amounted to 3.5 fold over blank.
Turning to B4, the “Binding RSV-A, Fold blanc” value was 3 fold over blank.
On the same count and under the same terms, the same measure for B7: 3.7 fold over blank.
Still for that read-out and setting: with B5 the figure was 2.9 fold over blank; with B6, 3.5 fold over blank.

The target is the same in another assay. Put plainly: competition ELISA, periplasmic extract diluted 1:1000, competitor 101F Fab.
In the case of B1, the “% Inhibition 101F Fab (1:1000 PE)” value was determined as 20%.
The same measure, in the same setting: with B3 the figure was 6%; with B4, 9%; with B7, 20%.
Regarding B5, the “% Inhibition 101F Fab (1:1000 PE)” value worked out at 13%.
Still for that read-out and setting: the same measure for B6: 5%.

The target is the same in the next assay. Put plainly: competition ELISA, periplasmic extract diluted 1:300, competitor 101F Fab.
For the molecule B1, the “% Inhibition 101F Fab (1:300 PE)” value came to 47%.
On to B2, for which the “% Inhibition 101F Fab (1:300 PE)” value is 16%.
Same read-out and setting: with B3 the figure was 31%; with B4, 37%; with B7, 55%.
Take B5: the “% Inhibition 101F Fab (1:300 PE)” value is 46%.
With B6, the “% Inhibition 101F Fab (1:300 PE)” value is 27%.

A further assay concerns the target T2, hRSV FTM- protein (membrane anchorless form of the fusion protein, 70 kDa) (human respiratory syncytial virus, UniProt P12568 26-524).
T2 construct: extracellular domain
The experiment in a line: SPR (Biacore T100), FTM- amine-coupled on CM5 chip, 1:1 Langmuir fit. (In general: In SPR one partner is held on a chip, and binding of the other changes the refractive index at the surface.)
For B8, the Kd (usually a measure of binding affinity in units of concentration) stood at 2.91 nM; the koff (as a rule, the first-order rate constant of dissociation) was 0.000937 s⁻¹; the kon (commonly a measure of how fast the partners come together) came out at 322000 M⁻¹ s⁻¹.
Taken in the same sequence, the figures for B9 were 25.4 nM, 0.00492 s⁻¹ and 194000 M⁻¹ s⁻¹.
With B10, binding was characterised by a dissociation constant (Kd) of 3.72 nM, the koff was determined as 0.00611 s⁻¹ and the kon came to 1.65e+06 M⁻¹ s⁻¹.
Taken in the same sequence, the figures for B11 were 0.7 nM, 0.000208 s⁻¹ and 298000 M⁻¹ s⁻¹.
Taken in the same sequence, the figures for B12 were 3.49 nM, 0.000613 s⁻¹ and 175000 M⁻¹ s⁻¹.
Consider B13, for which the Kd amounted to 7.14 nM, the koff stood at 0.00577 s⁻¹ and the kon is 807000 M⁻¹ s⁻¹.
Molecule B14 registered a Kd of 7 nM, a koff of 0.00808 s⁻¹ and a kon of 1.15e+06 M⁻¹ s⁻¹.
The matching figures for B15: 2.05 nM, 0.00324 s⁻¹ and 1.59e+06 M⁻¹ s⁻¹.
Take B16: the Kd worked out at 15.4 nM, the koff came to 0.0128 s⁻¹ and the kon was 829000 M⁻¹ s⁻¹.
The matching figures for B17: 7.47 nM, 0.00846 s⁻¹ and 1.13e+06 M⁻¹ s⁻¹.
The matching figures for B18: 55.5 nM, 0.0127 s⁻¹ and 229000 M⁻¹ s⁻¹.
